The target in the experiment is 4E wild type (overexpressed in stably transfected NIH3T3 cells). Put plainly: cell-based or functional assay.

“human promyelocytic leukemia protein PML (overexpressed from pLINKSV40-PML) (from UniProt P29590 1-882)” yielded a viability of serum deprived cells (annexin V / propidium iodide flow cytometry) (% viable cells) of 40.

Values taken from patent EP2762886A1.
